This is an account of results in patent US12698507B2, “Methods and compositions for conferring and/or enhancing herbicide tolerance using protoporphyrinogen IX oxidase of various cyanobacteria or variant thereof” (FarmHannong Co., Ltd., priority 2019, dated 2026).

B1: CyPPO19 V305L + F360M: variant of CyPPO19 PPO protein (SEQ ID NO: 1) (protein)
chain: MSEVDVAIVGGGLSGLSLAWRLQQSAPQYSVVLLEASDRLGGNITTQTAEGFVWELGPNSFAPTPALLQLIAEVGLQSELIRGDRHLPRYIYWRGQLYPLQPTRPLALATSNLLSPWGKVRAALGALGFVPPYLGSGDESVNSFFRRHLGQEVAERLVAPFVSGVYAGDPQQLSAAAAFRRIAQLEKLGGGLIAGALHLRRQQAPKPKPPTSVQMRPGELGSFKEGLAALPRAIAQQLKAPIHLQTPVQEITPDPKGGYLLRSGEQTWRARSVVLATPAYQTAELVAPFQPAIARVLATIPYPTLACVVLAYPAGLGRSVRPGFGVLIPRSQGIRTLGTIWSSCLFPQRTPAGWQVFTSMIGGATDPDLASLSEEAIVQQVQQDLNRLLDLPAAKARLLGMKVWRRAIPQYMVGYPEQWQQVTHALSQTPGLFLCSNYAEGVALGDRVEHGNRTAAAVAAYLSGGQP
modifications: Synthetic_PPO of Thermosynechococcus elongatus PKUAC-SCTE542 (comprising GenBank No. CP032152.1)
B2: CyPPO19 V305L + F360L: variant of CyPPO19 PPO protein (SEQ ID NO: 1) (protein)
chain: MSEVDVAIVGGGLSGLSLAWRLQQSAPQYSVVLLEASDRLGGNITTQTAEGFVWELGPNSFAPTPALLQLIAEVGLQSELIRGDRHLPRYIYWRGQLYPLQPTRPLALATSNLLSPWGKVRAALGALGFVPPYLGSGDESVNSFFRRHLGQEVAERLVAPFVSGVYAGDPQQLSAAAAFRRIAQLEKLGGGLIAGALHLRRQQAPKPKPPTSVQMRPGELGSFKEGLAALPRAIAQQLKAPIHLQTPVQEITPDPKGGYLLRSGEQTWRARSVVLATPAYQTAELVAPFQPAIARVLATIPYPTLACVVLAYPAGLGRSVRPGFGVLIPRSQGIRTLGTIWSSCLFPQRTPAGWQVFTSLIGGATDPDLASLSEEAIVQQVQQDLNRLLDLPAAKARLLGMKVWRRAIPQYMVGYPEQWQQVTHALSQTPGLFLCSNYAEGVALGDRVEHGNRTAAAVAAYLSGGQP
modifications: Synthetic_PPO of Thermosynechococcus elongatus PKUAC-SCTE542 (comprising GenBank No. CP032152.1)
B3: CyPPO19 V305M + F360M: variant of CyPPO19 PPO protein (SEQ ID NO: 1) (protein)
chain: MSEVDVAIVGGGLSGLSLAWRLQQSAPQYSVVLLEASDRLGGNITTQTAEGFVWELGPNSFAPTPALLQLIAEVGLQSELIRGDRHLPRYIYWRGQLYPLQPTRPLALATSNLLSPWGKVRAALGALGFVPPYLGSGDESVNSFFRRHLGQEVAERLVAPFVSGVYAGDPQQLSAAAAFRRIAQLEKLGGGLIAGALHLRRQQAPKPKPPTSVQMRPGELGSFKEGLAALPRAIAQQLKAPIHLQTPVQEITPDPKGGYLLRSGEQTWRARSVVLATPAYQTAELVAPFQPAIARVLATIPYPTMACVVLAYPAGLGRSVRPGFGVLIPRSQGIRTLGTIWSSCLFPQRTPAGWQVFTSMIGGATDPDLASLSEEAIVQQVQQDLNRLLDLPAAKARLLGMKVWRRAIPQYMVGYPEQWQQVTHALSQTPGLFLCSNYAEGVALGDRVEHGNRTAAAVAAYLSGGQP
modifications: Synthetic_PPO of Thermosynechococcus elongatus PKUAC-SCTE542 (comprising GenBank No. CP032152.1)
B4: CyPPO19 V305M + F360T: variant of CyPPO19 PPO protein (SEQ ID NO: 1) (protein)
chain: MSEVDVAIVGGGLSGLSLAWRLQQSAPQYSVVLLEASDRLGGNITTQTAEGFVWELGPNSFAPTPALLQLIAEVGLQSELIRGDRHLPRYIYWRGQLYPLQPTRPLALATSNLLSPWGKVRAALGALGFVPPYLGSGDESVNSFFRRHLGQEVAERLVAPFVSGVYAGDPQQLSAAAAFRRIAQLEKLGGGLIAGALHLRRQQAPKPKPPTSVQMRPGELGSFKEGLAALPRAIAQQLKAPIHLQTPVQEITPDPKGGYLLRSGEQTWRARSVVLATPAYQTAELVAPFQPAIARVLATIPYPTMACVVLAYPAGLGRSVRPGFGVLIPRSQGIRTLGTIWSSCLFPQRTPAGWQVFTSTIGGATDPDLASLSEEAIVQQVQQDLNRLLDLPAAKARLLGMKVWRRAIPQYMVGYPEQWQQVTHALSQTPGLFLCSNYAEGVALGDRVEHGNRTAAAVAAYLSGGQP
modifications: Synthetic_PPO of Thermosynechococcus elongatus PKUAC-SCTE542 (comprising GenBank No. CP032152.1)
B5: CyPPO19 V305M + F360V: variant of CyPPO19 PPO protein (SEQ ID NO: 1) (protein)
chain: MSEVDVAIVGGGLSGLSLAWRLQQSAPQYSVVLLEASDRLGGNITTQTAEGFVWELGPNSFAPTPALLQLIAEVGLQSELIRGDRHLPRYIYWRGQLYPLQPTRPLALATSNLLSPWGKVRAALGALGFVPPYLGSGDESVNSFFRRHLGQEVAERLVAPFVSGVYAGDPQQLSAAAAFRRIAQLEKLGGGLIAGALHLRRQQAPKPKPPTSVQMRPGELGSFKEGLAALPRAIAQQLKAPIHLQTPVQEITPDPKGGYLLRSGEQTWRARSVVLATPAYQTAELVAPFQPAIARVLATIPYPTMACVVLAYPAGLGRSVRPGFGVLIPRSQGIRTLGTIWSSCLFPQRTPAGWQVFTSVIGGATDPDLASLSEEAIVQQVQQDLNRLLDLPAAKARLLGMKVWRRAIPQYMVGYPEQWQQVTHALSQTPGLFLCSNYAEGVALGDRVEHGNRTAAAVAAYLSGGQP
modifications: Synthetic_PPO of Thermosynechococcus elongatus PKUAC-SCTE542 (comprising GenBank No. CP032152.1)
B6: CyPPO19 V305M + F360L: variant of CyPPO19 PPO protein (SEQ ID NO: 1) (protein)
chain: MSEVDVAIVGGGLSGLSLAWRLQQSAPQYSVVLLEASDRLGGNITTQTAEGFVWELGPNSFAPTPALLQLIAEVGLQSELIRGDRHLPRYIYWRGQLYPLQPTRPLALATSNLLSPWGKVRAALGALGFVPPYLGSGDESVNSFFRRHLGQEVAERLVAPFVSGVYAGDPQQLSAAAAFRRIAQLEKLGGGLIAGALHLRRQQAPKPKPPTSVQMRPGELGSFKEGLAALPRAIAQQLKAPIHLQTPVQEITPDPKGGYLLRSGEQTWRARSVVLATPAYQTAELVAPFQPAIARVLATIPYPTMACVVLAYPAGLGRSVRPGFGVLIPRSQGIRTLGTIWSSCLFPQRTPAGWQVFTSLIGGATDPDLASLSEEAIVQQVQQDLNRLLDLPAAKARLLGMKVWRRAIPQYMVGYPEQWQQVTHALSQTPGLFLCSNYAEGVALGDRVEHGNRTAAAVAAYLSGGQP
modifications: Synthetic_PPO of Thermosynechococcus elongatus PKUAC-SCTE542 (comprising GenBank No. CP032152.1)

For the assay, the system named is PPO-deficient BT3 E. coli (ΔPPO). Nature of the assay: PPO-inhibiting herbicide tolerance test of PPO variants in E. coli (growth on herbicide-containing LB agar). It is filed as cell-based. The following applies: CyPPO19 variants in BT3 (ΔPPO) E. coli; LB agar with 0 to 2,000 μM herbicide, 37° C., dark, 16-20 hours. Put shortly:
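Tolerance was scored against wild-type enzyme: '−' for equal growth, one '+' per 10-fold gain, up to '+++++'. ΔPPO BT3 cells carrying variant plasmids, spotted as a 10-fold dilution series from OD600=0.5, grew 16-20 h at 37° C. in the dark on ampicillin LB agar containing 0 to 2,000 μM herbicide.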
With B1, the “tolerance level relative to wild type, Carfentrazone” value was “+ (‘+’ per each 10-fold resistance)”; the “tolerance level relative to wild type, Flumioxazin” value is listed as “++++ (‘+’ per each 10-fold resistance)”; the “tolerance level relative to wild type, Fomesafen” value is given as “+++ (‘+’ per each 10-fold resistance)”; the “tolerance level relative to wild type, Oxyfluorfen” value was “++ (‘+’ per each 10-fold resistance)”. Further, the “tolerance level relative to wild type, Saflufenacil” value is “++++ (‘+’ per each 10-fold resistance)”; the “tolerance level relative to wild type, Sulfentrazone” value is reported as “+ (‘+’ per each 10-fold resistance)”; the “tolerance level relative to wild type, Tiafenacil” value is given as “+++ (‘+’ per each 10-fold resistance)”.

B2: the “tolerance level relative to wild type, Carfentrazone” value is reported as “+ (‘+’ per each 10-fold resistance)”; the “tolerance level relative to wild type, Flumioxazin” value is “++++ (‘+’ per each 10-fold resistance)”; the “tolerance level relative to wild type, Fomesafen” value was “+++ (‘+’ per each 10-fold resistance)”; the “tolerance level relative to wild type, Oxyfluorfen” value is listed as “++ (‘+’ per each 10-fold resistance)”. For the same molecule, the “tolerance level relative to wild type, Saflufenacil” value is listed as “++++ (‘+’ per each 10-fold resistance)”; the “tolerance level relative to wild type, Sulfentrazone” value is “++ (‘+’ per each 10-fold resistance)”; the “tolerance level relative to wild type, Tiafenacil” value is on record as “++++ (‘+’ per each 10-fold resistance)”.

In the case of B3, the “tolerance level relative to wild type, Carfentrazone” value is on record as “+ (‘+’ per each 10-fold resistance)”; the “tolerance level relative to wild type, Flumioxazin” value is “++++ (‘+’ per each 10-fold resistance)”; the “tolerance level relative to wild type, Fomesafen” value is “+++ (‘+’ per each 10-fold resistance)”; the “tolerance level relative to wild type, Oxyfluorfen” value is “++ (‘+’ per each 10-fold resistance)”. Also, the “tolerance level relative to wild type, Saflufenacil” value is “++++ (‘+’ per each 10-fold resistance)”; the “tolerance level relative to wild type, Sulfentrazone” value is “++ (‘+’ per each 10-fold resistance)”; the “tolerance level relative to wild type, Tiafenacil” value is “++++ (‘+’ per each 10-fold resistance)”.

Consider B4, for which the “tolerance level relative to wild type, Carfentrazone” value was “+ (‘+’ per each 10-fold resistance)”; the “tolerance level relative to wild type, Flumioxazin” value was “++ (‘+’ per each 10-fold resistance)”; the “tolerance level relative to wild type, Fomesafen” value is recorded as “++ (‘+’ per each 10-fold resistance)”; the “tolerance level relative to wild type, Oxyfluorfen” value was “+ (‘+’ per each 10-fold resistance)”. The “tolerance level relative to wild type, Saflufenacil” value is “++ (‘+’ per each 10-fold resistance)”; the “tolerance level relative to wild type, Sulfentrazone” value is listed as “+ (‘+’ per each 10-fold resistance)”; the “tolerance level relative to wild type, Tiafenacil” value is recorded as “++ (‘+’ per each 10-fold resistance)”.

For B5, the “tolerance level relative to wild type, Carfentrazone” value is recorded as “+ (‘+’ per each 10-fold resistance)”; the “tolerance level relative to wild type, Flumioxazin” value is “++++ (‘+’ per each 10-fold resistance)”; the “tolerance level relative to wild type, Fomesafen” value is reported as “+ (‘+’ per each 10-fold resistance)”; the “tolerance level relative to wild type, Oxyfluorfen” value is “++ (‘+’ per each 10-fold resistance)”. Moreover, the “tolerance level relative to wild type, Saflufenacil” value was “++++ (‘+’ per each 10-fold resistance)”; the “tolerance level relative to wild type, Sulfentrazone” value is “+ (‘+’ per each 10-fold resistance)”; the “tolerance level relative to wild type, Tiafenacil” value is “++++ (‘+’ per each 10-fold resistance)”.

Consider B6, for which the “tolerance level relative to wild type, Carfentrazone” value is reported as “+ (‘+’ per each 10-fold resistance)”; the “tolerance level relative to wild type, Flumioxazin” value is recorded as “++++ (‘+’ per each 10-fold resistance)”; the “tolerance level relative to wild type, Fomesafen” value is recorded as “++ (‘+’ per each 10-fold resistance)”; the “tolerance level relative to wild type, Oxyfluorfen” value is “++ (‘+’ per each 10-fold resistance)”. In addition, the “tolerance level relative to wild type, Saflufenacil” value was “++++ (‘+’ per each 10-fold resistance)”; the “tolerance level relative to wild type, Sulfentrazone” value is “++ (‘+’ per each 10-fold resistance)”; the “tolerance level relative to wild type, Tiafenacil” value is “++++ (‘+’ per each 10-fold resistance)”.
